Measured values from patent US20120301476A1 (TORAY INDUSTRIES, published 2012).

Key:
[1] = biological target: T1, peptide of SEQ ID NO: 69 (partial sequence in the polypeptide of SEQ ID NO: 37) (human); assay: ELISA on immobilised synthetic peptides
T1 peptide: QQPQAASPSVPE
Method: Each peptide was dissolved in 0.1M sodium carbonate buffer (pH 9.6) at a concentration of 30 μg/ml, added to a 96-well plate (Nunc, Product No. 436006) at 100 μl per well, and then left to stand at 4° C. overnight. The solution was discarded, 10 mM ethanolamine/0.1M sodium carbonate buffer (PH 9.6) was added at 200 μl per well, and then the plate was left to stand at room temperature for 1 hour. The solution was discarded, the plate was washed twice with PBS (PBST) containing 0.5% Tween20, so that the plate with each peptide immobilized thereto was prepared.
A cell culture supernatant containing the human-chicken chimeric monoclonal antibody (#1) and the mouse monoclonal antibodies (#2, #3, #4, #5, and #6) obtained in Example 4 (2) was added to the plate at 50 μl per well. After 1 hour of shaking at room temperature, the solution was removed, and then the plate was washed three times with PBST. Next, an HRP-labeled anti-human IgG (Invitrogen) antibody diluted 3000- to 4000-fold with PBST (a secondary antibody solution) was added to each well of the human-chicken chimeric monoclonal antibody and an HRP-labeled anti-mouse IgG (Invitrogen) antibody diluted 3000- to 4000-fold with PBST (a secondary antibody solution) was added to each well of the mouse monoclonal antibody, at 50 μl per well, and then the solution was removed, followed by six times of washing with PBST.
A TMB substrate solution (Thermo) was added at 100 μl per well, and the plate was left to stand for 15 to 30 minutes for coloring reaction. After color development, 1N sulfuric acid was added at 100 μl per well to stop the reaction and then absorbances at 450 nm and 595 nm were measured using an absorption spectrometer. As a result, the polypeptide of SEQ ID NO: 37 was identified as a CAPRIN-1 partial sequence that is recognized by all of the anti-CAPRIN-1 monoclonal antibodies #1 to #6. Furthermore, the peptide of SEQ ID NO: 69 was identified as a partial sequence in the above polypeptide of SEQ ID NO: 37, which is recognized by the monoclonal antibodies #1, #4, and #5. […]

[2] = biological target: T2, human CAPRIN-1 protein on the cell surfaces of human cancer cell lines and in human cancer tissues (human, UniProt Q14444 2-709); assay: flow cytometry on the listed human cancer cell lines, culture supernatant, against negative control
T2 construct: whole, on cells; Endogenous protein of human cancer cell lines (flow cytometry, ADCC, CDC) and of human cancer tissue sections (immunohistochemistry); also called CAPRIN-1 protein expressed on the cell membrane surfaces
T2 sequence (looked up): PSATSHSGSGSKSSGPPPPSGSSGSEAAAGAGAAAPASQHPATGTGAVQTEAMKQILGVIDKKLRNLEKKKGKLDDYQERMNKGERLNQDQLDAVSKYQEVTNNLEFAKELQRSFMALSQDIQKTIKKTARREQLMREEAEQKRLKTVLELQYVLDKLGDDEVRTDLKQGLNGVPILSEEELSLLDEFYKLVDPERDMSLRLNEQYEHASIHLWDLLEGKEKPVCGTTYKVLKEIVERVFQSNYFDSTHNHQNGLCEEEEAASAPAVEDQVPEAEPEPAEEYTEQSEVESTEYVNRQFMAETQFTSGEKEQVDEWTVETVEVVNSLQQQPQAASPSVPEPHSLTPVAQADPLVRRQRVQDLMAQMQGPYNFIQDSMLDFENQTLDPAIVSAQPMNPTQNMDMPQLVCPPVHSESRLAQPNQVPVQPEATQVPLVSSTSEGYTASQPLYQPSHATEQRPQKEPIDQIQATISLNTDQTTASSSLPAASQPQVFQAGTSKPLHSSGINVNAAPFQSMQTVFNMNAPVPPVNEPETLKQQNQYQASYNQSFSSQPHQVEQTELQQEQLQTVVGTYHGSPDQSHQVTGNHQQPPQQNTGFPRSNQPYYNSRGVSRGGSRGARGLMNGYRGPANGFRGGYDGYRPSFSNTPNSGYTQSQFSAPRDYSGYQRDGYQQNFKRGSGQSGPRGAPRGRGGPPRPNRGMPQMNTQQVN
Method: 10⁶ cells of each cell line were centrifuged in a 1.5 ml microcentrifuge tube. Each cell culture supernatant (100 μl) of CHO-K1 cells containing #1 obtained in (2) above and hybridomas producing #2, #3, #4, #5, and #6 obtained in Example 3 was added and then left to stand on ice for 1 hour. After washing with PBS, a FITC-labeled goat anti-human IgG (H+L) antibody (SouthernBiotech) and a FITC-labeled anti-mouse IgG (H+L) antibody (Invitrogen) diluted 500-fold with PBS containing 0.1% FBS were added and then left to stand on ice for 1 hour. After washing with PBS, fluorescence intensity was measured using a FACS Calibur (Becton, Dickinson). Meanwhile, procedures similar to the above were performed using a culture supernatant of CHO-K1 cells into which no antibody gene had been introduced and medium for culturing hybridomas, so that a negative control sample was prepared. […] Specifically, when the antibody #1 was used, fluorescence intensity was enhanced to 4700% in the case of SK-BR-3 and 5500% in the case of MDA-MB-231V. Also, when the antibodies #2, #3, #4, #5, and #6 were used, fluorescence intensity was enhanced. […] The percentage of enhancement in the above fluorescence intensity was expressed as percentage of increase in mean fluorescence intensity (MFI level) in each type of cell and calculated by the following formula.

B1: human-chicken chimeric antibody #1 having the chicken monoclonal antibody #1 variable region (antibody, V domains shown)
VH: AVTLDESGGGLQMSRGGLSLVCKASGFDFSSYQMNWIRQAPGKGLEFVAAINKFGNSTGHGAAVKGRVTISRDNGQSTVRLQLNNLRAEDTAIYFCTKHAYGYCGSGTWCAAGEIDAWGHGTEVIVSS
VL: QAASTQPSSVSANPGETVEITCSGGGSYSYGWFQQKSPGSAPVTVIYYNNKRPSDIPSRFSGSKSGSTGTLTITGVQADDEAVYYCGSGDSTDTAVFGAGTTLTVLG
notes: also called anti-CAPRIN-1 antibody #1; human-chicken chimeric monoclonal antibody (#1); not shown: human IgG1 H-chain constant region; human IgG1 L-chain constant region
In the case of B1, the binding result [1] is reported as “binds” and the “percentage of increase in mean fluorescence intensity” value [2] is reported as ≥ 20%.
